T1: Boi1 SH3 (BOI1_YEAST), P38041
T1 chain: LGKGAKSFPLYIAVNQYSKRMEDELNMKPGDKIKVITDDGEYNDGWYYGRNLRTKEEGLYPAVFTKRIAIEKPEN

T2: Boi2 SH3 (BOI2_YEAST), P39969
T2 chain: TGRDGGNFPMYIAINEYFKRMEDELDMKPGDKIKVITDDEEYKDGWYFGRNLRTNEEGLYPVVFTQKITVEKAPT

T3: Rvs167 SH3 (RV167_YEAST), P39743
T3 chain: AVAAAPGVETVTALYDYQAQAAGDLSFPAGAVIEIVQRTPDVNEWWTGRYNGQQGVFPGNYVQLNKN

T4: Yfr024 SH3 (LSB3_YEAST), P43603
T4 chain: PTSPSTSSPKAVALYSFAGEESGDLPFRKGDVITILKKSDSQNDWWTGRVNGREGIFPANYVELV

T5: Yhr016c SH3 (YSC84_YEAST), P32793
T5 chain: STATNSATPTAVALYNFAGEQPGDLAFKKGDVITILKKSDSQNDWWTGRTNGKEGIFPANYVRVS


Experiments:
Experiment in all cases: SPOT array
[1] = target: T1, Boi1 SH3 (BOI1_YEAST), P38041
[2] = target: T2, Boi2 SH3 (BOI2_YEAST), P39969
[3] = target: T3, Rvs167 SH3 (RV167_YEAST), P39743
[4] = target: T4, Yfr024 SH3 (LSB3_YEAST), P43603
[5] = target: T5, Yhr016c SH3 (YSC84_YEAST), P32793

Binder | normalised SPOT signal, Boehringer light units (BLU); mean over the file's lines of this peptide [1] | normalised SPOT signal, Boehringer light units (BLU); mean over the file's lines of this peptide [2] | normalised SPOT signal, Boehringer light units (BLU); mean over the file's lines of this peptide [3] | normalised SPOT signal, Boehringer light units (BLU); mean over the file's lines of this peptide [4] | normalised SPOT signal, Boehringer light units (BLU); mean over the file's lines of this peptide [5]
SREPEVPQRLLTLI [YCR095C 250-263] | 60 | 67.2 | 42.9 | 1140 | 176
DDAPATPPRPLKRK [YJL194W 18-31] | 242 | 101 | 4430 | 26500 | 13400
DDTPSIPSKISSKS [YBL034C 1313-1326] | 63.8 | 115 | 247 | 124 | 188
SILPAFPSKSSNEQ [YDR403W 216-229] | 131 | 25.1 | 68.1 | 441 | 108
AVLPIEPMKIKGTT [YNL140C 149-162] | 98.3 | 37 | 39 | 605 | 191
SLGPLDPLKEISDL [YLR330W 177-190] | 103 | 42.4 | 8.3 | 13.6 | 206
SILPSTPTRPLSQS [YPL202C 314-327] | 44.6 | 19.1 | 196 | 20300 | 20300
DEPPSFPKRWGWLK [YIL067C 85-98] | 77.3 | 112 | 62.6 | 9640 | 2420
ATTPAIPTKSDEAE [YGR162W 364-377] | 70.8 | 42.2 | 86.1 | 166 | 0
SDFPYDPFKVMRQN [YKR061W 225-238] | 41.4 | 40.1 | 11.8 | 33.2 | 119
ATVPSAPYRKQIIS [YAR002W 11-24] | 30.5 | 53.7 | 145 | 1890 | 718

Other lines, results leading:

normalised SPOT signal, Boehringer light units (BLU); mean over the file's lines of this peptide [1] | normalised SPOT signal, Boehringer light units (BLU); mean over the file's lines of this peptide [2] | normalised SPOT signal, Boehringer light units (BLU); mean over the file's lines of this peptide [3] | normalised SPOT signal, Boehringer light units (BLU); mean over the file's lines of this peptide [4] | normalised SPOT signal, Boehringer light units (BLU); mean over the file's lines of this peptide [5] | Binder
168 | 302 | 1180 | 6110 | 1730 | ATRPSSPMRHKSIS [YAR019C 585-598]
110 | 11.7 | 0 | 0 | 120 | DESPIDPSKAPKVP [YGR130C 350-363]
74.5 | 53.1 | 5.3 | 0 | 42.7 | AVDPENPKKLASKF [YCR023C 384-397]
23.4 | 56.4 | 40.5 | 22.9 | 259 | SNPPTDPGRIPMSE [YKR054C 2535-2548]
632 | 169 | 111 | 7440 | 992 | DERPFRPKRTSRSA [YGL165C 149-162]
128 | 28.3 | 124 | 7450 | 6740 | DELPSPPLRMVHID [YER152C 237-250]
123 | 51.1 | 94 | 634 | 202 | SQRPGSPGRYKLVR [YER025W 174-187]
100 | 22 | 354 | 4190 | 314 | SGFPLLPSKRGVTA [YBL095W 165-178]
330 | 33.6 | 42 | 231 | 245 | SDFPYDPFRVMRLK [YJL139C 225-238]
120 | 9.7 | 4.1 | 2740 | 84 | SNEPHLPPKWVQRS [YLR318W 152-165]
40.2 | 49 | 22.3 | 6960 | 174 | SIIPPLPDKKVFQY [YJL036W 96-109]

From PMC314469, “Protein Interaction Networks by Proteome Peptide Scanning” (PLoS Biology, 2004)
